Measurements: patent US20140186897A1, “TRANSFORMANT OF YEAST OF GENUS SCHIZOSACCHAROMYCES, METHOD FOR PRODUCING SAME, METHOD FOR PRODUCING ß-GLUCOSIDASE, AND CELLULOSE DEGRADATION METHOD” (ASAHI GLASS COMPANY, LIMITED, priority 2011, published 2014)
Positions count from the first letter of the chain named. Numbers in names are those of the source.

B1: I260F: modified-type P3AaBGL1 with I260F only (mutation 1) (protein)
chain: MKITAVIALLFSLAAASPIPVADPGVVSVSLKKRADELAFSPPFYPSPWANGQGEWAEAYQRAVAIVSQMTLDEKVNLTTGTGWELEKCVGQTGGVPRLNIGGMCLQDSPLGIRDSDYNSAFPAGVNVAATWDKNLAYLRGQAMGQEFSDKGIDVQLGPAAGPLGRSPDGGRNWEGFSPDPALTGVLFAETIKGIQDAGVVATAKHYILNEQEHFRQVAEAAGYGFNISDTISSNVDDKTIHEMYLWPFADAVRAGVGAFMCSYNQINNSYGCQNSYTLNKLLKAELGFQGFVMSDWGAHHSGVGSALAGLDMSMPGDITFDSATSFWGTNLTIAVLNGTVPQWRVDDMAVRIMAAYYKVGRDRLYQPPNFSSWTRDEYGFKYFYPQEGPYEKVNHFVNVQRNHSEVIRKLGADSTVLLKNNNALPLTGKERKVAILGEDAGSNSYGANGCSDRGCDNGTLAMAWGSGTAEFPYLVTPEQAIQAEVLKHKGSVYAITDNWALSQVETLAKQASVSLVFVNSDAGEGYISVDGNEGDRNNLTLWKNGDNLIKAAANNCNNTIVVIHSVGPVLVDEWYDHPNVTAILWAGLPGQESGNSLADVLYGRVNPGAKSPFTWGKTREAYGDYLVRELNNGNGAPQDDFSEGVFIDYRGFDKRNETPIYEFGHGLSYTTFNYSGLHIQVLNASSNAQVATETGAAPTFGQVGNASDYVYPEGLTRISKFIYPWLNSTDLKASSGDPYYGVDTAEHVPEGATDGSPQPVLPAGGGSGGNPRLYDELIRVSVTVKNTGRVAGDAVPQLYVSLGGPNEPKVVLRKFDRLTLKPSEETVWTTTLTRRDLSNWDVAAQDWVITSYPKKVHVGSSSRQLPLHAALPKVQ
B2: N458S: modified-type P3AaBGL1 with N458S only (mutation 3) (protein)
chain: B1 chain with F260I, N458S
B3: Q156L: modified-type P3AaBGL1 with Q156L only (protein)
chain: B1 chain with Q156L, F260I
B4: R629L: modified-type P3AaBGL1 with R629L only (mutation 6) (protein)
chain: B1 chain with F260I, R629L

What was measured:
[1] = glucose inhibition measurement (residual glucosidase activity in the presence of glucose); assay type: biochemical; settings: for Residual glucosidase activity, Glc 0 mM / Residual glucosidase activity, Glc 1 mM / Residual glucosidase activity, Glc 5 mM / Residual glucosidase activity, Glc 10 mM / Residual glucosidase activity, Glc 20 mM / Residual glucosidase activity, Glc 50 mM / Residual glucosidase activity, Glc 100 mM / Residual glucosidase activity, Glc 200 mM: Example 9; for Residual glucosidase activity, Glc 0 mM: glucose 0 mM (reference set to 100); for Residual glucosidase activity, Glc 1 mM: glucose 1 mM; for Residual glucosidase activity, Glc 5 mM: glucose 5 mM; for Residual glucosidase activity, Glc 10 mM: glucose 10 mM; for Residual glucosidase activity, Glc 20 mM: glucose 20 mM; for Residual glucosidase activity, Glc 50 mM: glucose 50 mM; for Residual glucosidase activity, Glc 100 mM: glucose 100 mM; for Residual glucosidase activity, Glc 200 mM: glucose 200 mM; for resistance to glucose inhibition (in words): compared with P3AaBGL1 / β-glucosidase without the mutation
Procedure: To 10 μl of 20 mM pNPG, 10 μl of 1M sodium acetate buffer solution (pH 5.0) and from 4 to 10 μl of 1M glucose (final concentration of from 20 to 50 mM) were added, followed by addition of water up to the total volume of 150 μl. Thereafter, 50 μl of the diluted enzyme sample was introduced for reacting them at 37° C. for 10 minutes. As a control, a glucose-free reaction mixture was used, and then the reaction was carried out at 37° C. for 10 minutes, in the same manner. 100 μl of each reaction mixture was mixed with 100 μl of 2% sodium carbonate solution to terminate reaction, and then the amount of liberated p-nitrophenol was colorimetrically measured at a wavelength of 450 nm.
The ratio (%) of the colorimetric value of each reaction mixture to the colorimetric value of the control sample (glucose-free sample) was defined as the residual activity after glucose inhibition.
(§1) By using the above-obtained culture supernatant of the P3AaBGL1 mutant strain, a diluted enzyme sample was prepared, and then the enzymatic activity of the sample was measured in accordance with the above-described activity measurement method. Further, the glucose inhibition at a final glucose concentration of from 0.1 to 200 mM and the thermostability at a warming temperature of from 50 to 75° C. were measured for evaluation.
(§2) 11F10 strain, 22A12 strain, 28C02 strain, 29F09 strain and mutBGL1 strain selected from the mutant strains, and ASP3326 strain as the original strain were cultivated in a Sakaguchi flask containing 100 ml of YPD medium at 30° C. for two days. To each of the culture supernatants obtained by cultivating them, […] was added until 80% saturation was reached, thereby to carry out ammonium sulfate precipitation at 4° C. for 2 hours. Thereafter, centrifugation was carried out to collect pellets, and the pellets were dissolved in 10 ml of 10 mM citrate phosphate buffer solution (pH 7.0). Then, desalting and concentration were carried out by using an ultrafiltration membrane having MWCO of 100,000, thereby to recover 1 ml of a crude liquid. Thus recovered crude liquid was purified by using Hitrap QXL column to collect a fraction of a peak of pNPG activity, thereby to obtain a purified sample. Elution was carried out by using a 10 mM citrate phosphate buffer solution (pH 7.0) and a NaCl concentration gradient (0 to 1M).
(§3) In the same manner as in Example 1, the residual glucosidase activities after glucose inhibition at a glucose concentration of from 0.1 to 200 mM were measured. Further, the residual glucosidase activities after heat treatment at a temperature of from 50 to 75° C. for 10 minutes were measured.

[2] = thermostability measurement (residual glucosidase activity after heat treatment); assay type: physicochemical; settings: for Residual glucosidase activity, Temp 50° C. / Residual glucosidase activity, Temp 55° C. / Residual glucosidase activity, Temp 60° C. / Residual glucosidase activity, Temp 65° C. / Residual glucosidase activity, Temp 70° C. / Residual glucosidase activity, Temp 73° C. / Residual glucosidase activity, Temp 75° C. / Residual glucosidase activity, Untreated: Example 9; for Residual glucosidase activity, Temp 50° C.: 10 minutes at 50° C.; for Residual glucosidase activity, Temp 55° C.: 10 minutes at 55° C.; for Residual glucosidase activity, Temp 60° C.: 10 minutes at 60° C.; for Residual glucosidase activity, Temp 65° C.: 10 minutes at 65° C.; for Residual glucosidase activity, Temp 70° C.: 10 minutes at 70° C.; for Residual glucosidase activity, Temp 73° C.: 10 minutes at 73° C.; for Residual glucosidase activity, Temp 75° C.: 10 minutes at 75° C.; for Residual glucosidase activity, Untreated: no heat treatment (reference set to 100); for thermostability (in words): compared with P3AaBGL1 / β-glucosidase without the mutation
Procedure: To 10 μl of 20 mM pNPG, 10 μl of 1M sodium acetate buffer solution (pH 5.0) and 130 μl of water were added, and then 50 μl of a diluted enzyme sample preliminarily heat-treated at […] for 10 minutes was introduced for reacting them at 37° C. for 10 minutes. As a control, a diluted enzyme sample which was not subjected to the heat treatment was used, and then the reaction was carried out at 37° C. for 10 minutes, in the same manner. 100 μl of each reaction mixture was mixed with 100 μl of 2% sodium carbonate solution to terminate reaction, and then the amount of liberated p-nitrophenol was colorimetrically measured at a wavelength of 450 nm.
The ratio (%) of the colorimetric value of each reaction mixture to the colorimetric value of the control sample (untreated sample) was defined as the residual activity after heat treatment.
as §1, §2, §3

[3] = glucosidase activity measurement of culture supernatant (pNPG); assay type: biochemical
Procedure: A mutant strain which formed a large colony was selected from P3AaBGL1 mutant strain library. Then, thus selected strain and P3ASP3326 strain as the original strain were cultivated in 150 μl/well (96-well plate) of YES medium at 30° C. for two days. 50 μl of each culture supernatant was diluted by 150 μl of 50 mM acetate buffer (pH 5.0) to prepare a diluted enzyme sample. Then, the enzymatic activity of the sample was measured in accordance with the following method.
To 10 μl of 20 mM p-nitrophenyl-β-D-glucoside (hereinafter abbreviated as pNPG), 10 μl of 1M sodium acetate buffer solution (pH 5.0) and 130 μl of water were added, and then 50 μl of the diluted enzyme sample was introduced for reacting them at 37° C. for 10 minutes. 100 μl of the reaction mixture was mixed with 100 μl of 2% sodium carbonate solution to terminate reaction, and then the amount of free p-nitrophenol was colorimetrically measured at a wavelength of 450 nm.
The amount of enzyme that produces 1 μmol of p-nitrophenol per minute was defined as 1 U.
The P3AaBGL1 mutant strain obtained as above was cultivated in YES medium at 30° C. for one day. 100 μl of the culture broth was inoculated on 5 ml of YPD medium (1% of yeast extract, 2% of peptone, and 2% of glucose), followed by cultivation at 30° C. for two days. Thereafter, the culture broth was centrifuged to obtain a culture supernatant.
as §1

[4] = culture supernatant, relative to 0 mM glucose, Tables 7-10

Row | Molecule | Residual glucosidase activity, Glc 0 mM [1] | Residual glucosidase activity, Glc 1 mM [1] | Residual glucosidase activity, Glc 5 mM [1] | Residual glucosidase activity, Glc 10 mM [1] | Residual glucosidase activity, Glc 20 mM [1] | Residual glucosidase activity, Glc 50 mM [1] | Residual glucosidase activity, Glc 100 mM [1] | Residual glucosidase activity, Glc 200 mM [1] | resistance to glucose inhibition (in words) [1] | Residual glucosidase activity, Temp 50° C. [2] | Residual glucosidase activity, Temp 55° C. [2] | Residual glucosidase activity, Temp 60° C. [2] | Residual glucosidase activity, Temp 65° C. [2] | Residual glucosidase activity, Temp 70° C. [2] | Residual glucosidase activity, Temp 73° C. [2] | Residual glucosidase activity, Temp 75° C. [2] | Residual glucosidase activity, Untreated [2] | thermostability (in words) [2] | Activity ([3]; Example 9, Table 11) | also measured
1 | 6H05 |  |  |  |  |  |  |  |  |  |  |  |  |  |  |  |  |  |  |  | Residual activity, Glc 20 mM [1, 4]: 41%; Residual activity, Glc 50 mM [1, 4]: 23%; Residual activity, Temp 65° C. ([2]; culture supernatant warmed 10 minutes at 65° C., relative to no heat treatment, Tables 7-10): 73%; Residual activity, Temp 67° C. ([2]; culture supernatant warmed 10 minutes at 67° C., relative to no heat treatment, Tables 7-10): 59%; Activity ([3]; pNPG, pH 5.0, 37° C., 10 minutes, Tables 7-10): 525 mU/ml
2 | B1 | 100% | 95.9% | 73.6% | 55.6% | 39.0% | 20.2% | 11.4% | 6.3% | increase | 97.0% | 91.2% | 87.7% | 65.2% | 22.6% | 1.8% | 1.8% | 100% | increase | 457 mU/ml | 
3 | B2 | 100% | 92.7% | 68.1% | 52.1% | 35.9% | 17.7% | 10.4% | 6.0% | without decreasing | 98.6% | 95.7% | 91.6% | 64.2% | 19.4% | 0.8% | 1.6% | 100% | can be improved | 586 mU/ml | 
4 | B3 | 100% | 92.8% | 64.9% | 46.8% | 31.5% | 15.5% | 8.8% | 5.4% | decrease | 93.9% | 89.7% | 83.9% | 46.0% | 6.3% | 0.9% | 1.4% | 100% | decrease | 507 mU/ml | 
5 | B4 | 100% | 91.5% | 67.4% | 53.9% | 37.6% | 19.6% | 11.1% | 6.9% | without decreasing | 98.7% | 93.7% | 90.7% | 71.8% | 26.5% | 3.5% | 1.5% | 100% | can be improved | 526 mU/ml | 
